According to article doi:10.1101/2025.09.16.676546:

Biological target: E.amu APN ectodomain, His-tagged (for cryo-EM) (Erinaceus amurensis)
Assay: cryo-EM structure

Substance: EriCoV RU15-1 RBD, His-tagged (for cryo-EM, BLI and SPR) (domain or fragment)
- share of the total particles that are the complex: 5%
